PMC8268124, “Structure and Function of Piezophilic Hyperthermophilic Pyrococcus yayanosii pApase” (International Journal of Molecular Sciences, 2021)

B1: PyapApase (Pyrococcus yayanosii CH1) (protein)
chain: MLALIIHHWDTDGITTAALLVRALELGDFKNMTPPIGEFRFDGKIWAAIERADKLYVLDLNLPQEVEKVPVETLFIDHHIQPRIKNPRVRQVNPALEGKHYPSASLVVSEHFGIFNAWSALGAVGDIGEKAFELSRVEELLKGEGLSREDALKLVELIDSNYIVMDRMAVEEALHVLLNYELRELLEYEPWIRRVEAIKEAVEEVMSSVEERNGFAIVDFESPFNIISKVARKLVWEKGYRGAVVVNRNFHGKAQVYFRVSPKEAERISVLTIIGKLRGLGVNAGGKREVIGCICERGKLDEVLSVIDAYLG
B2: PyapApase (Pyrococcus yayanosii CH1; K287A) (protein)
chain: MLALIIHHWDTDGITTAALLVRALELGDFKNMTPPIGEFRFDGKIWAAIERADKLYVLDLNLPQEVEKVPVETLFIDHHIQPRIKNPRVRQVNPALEGKHYPSASLVVSEHFGIFNAWSALGAVGDIGEKAFELSRVEELLKGEGLSREDALKLVELIDSNYIVMDRMAVEEALHVLLNYELRELLEYEPWIRRVEAIKEAVEEVMSSVEERNGFAIVDFESPFNIISKVARKLVWEKGYRGAVVVNRNFHGKAQVYFRVSPKEAERISVLTIIGKLRGLGVNAGGAREVIGCICERGKLDEVLSVIDAYLG
B3: PyapApase (Pyrococcus yayanosii CH1; R259A) (protein)
chain: MLALIIHHWDTDGITTAALLVRALELGDFKNMTPPIGEFRFDGKIWAAIERADKLYVLDLNLPQEVEKVPVETLFIDHHIQPRIKNPRVRQVNPALEGKHYPSASLVVSEHFGIFNAWSALGAVGDIGEKAFELSRVEELLKGEGLSREDALKLVELIDSNYIVMDRMAVEEALHVLLNYELRELLEYEPWIRRVEAIKEAVEEVMSSVEERNGFAIVDFESPFNIISKVARKLVWEKGYRGAVVVNRNFHGKAQVYFAVSPKEAERISVLTIIGKLRGLGVNAGGKREVIGCICERGKLDEVLSVIDAYLG
B4: PyapApase (Pyrococcus yayanosii CH1; D12A) (protein)
chain: MLALIIHHWDTAGITTAALLVRALELGDFKNMTPPIGEFRFDGKIWAAIERADKLYVLDLNLPQEVEKVPVETLFIDHHIQPRIKNPRVRQVNPALEGKHYPSASLVVSEHFGIFNAWSALGAVGDIGEKAFELSRVEELLKGEGLSREDALKLVELIDSNYIVMDRMAVEEALHVLLNYELRELLEYEPWIRRVEAIKEAVEEVMSSVEERNGFAIVDFESPFNIISKVARKLVWEKGYRGAVVVNRNFHGKAQVYFRVSPKEAERISVLTIIGKLRGLGVNAGGKREVIGCICERGKLDEVLSVIDAYLG
B5: PyapApase (Pyrococcus yayanosii CH1; G285D) (protein)
chain: MLALIIHHWDTDGITTAALLVRALELGDFKNMTPPIGEFRFDGKIWAAIERADKLYVLDLNLPQEVEKVPVETLFIDHHIQPRIKNPRVRQVNPALEGKHYPSASLVVSEHFGIFNAWSALGAVGDIGEKAFELSRVEELLKGEGLSREDALKLVELIDSNYIVMDRMAVEEALHVLLNYELRELLEYEPWIRRVEAIKEAVEEVMSSVEERNGFAIVDFESPFNIISKVARKLVWEKGYRGAVVVNRNFHGKAQVYFRVSPKEAERISVLTIIGKLRGLGVNADGKREVIGCICERGKLDEVLSVIDAYLG

Each protein was assayed on Nc1ncnc2c1ncn2[C@@H]1O[C@H](COP(=O)(O)O)[C@@H](OP(=O)(O)O)[C@H]1O (assay: HPLC of AMP product, initial rates, double reciprocal plot). Details: 20 mM Tris-HCl pH 8.0, 50 mM NaCl, 1.0 mM MnCl2, 1.0 mM DTT, 100 µg/mL BSA, 70 °C.
Assay type: biochemical, Pyrococcus yayanosii
Excerpt: HPLC of AMP product, initial rates, double reciprocal plot on PyapApase
For B1, the Km was 272 ± 12.6 µM. In the case of B2, the Km is reported as 720 ± 33.1 µM, the kcat is reported as 17.10 ± 2.1 s⁻¹ and the kcat/Km is reported as 23800 M⁻¹ s⁻¹. Protein B3 has a Km of 6000 ± 753.4 µM. B4 showed a Km of 790 ± 47.7 µM, a kcat of 1.7 ± 0.3 s⁻¹ and a kcat/Km of 2160 M⁻¹ s⁻¹. With B5 the Km was 4500 ± 607.7 µM.
